Measurements reported in PMC10397247.

Key:
4H1629-bH = target: T1, 4H1629-bH; experiment: two-hybrid library CCNG1;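 further: natural log of median RNA to DNA barcode read ratio; higher means stronger binding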
T1 chain: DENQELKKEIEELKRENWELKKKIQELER

4H1710-bH = target: T2, 4H1710-bH; experiment: two-hybrid library CCNG1;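 further: natural log of median RNA to DNA barcode read ratio; higher means stronger binding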
T2 chain: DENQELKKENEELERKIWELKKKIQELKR

4H1804-bH = target: T3, 4H1804-bH; experiment: two-hybrid library CCNG1;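 further: natural log of median RNA to DNA barcode read ratio; higher means stronger binding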
T3 chain: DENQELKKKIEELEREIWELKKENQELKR

4H1985-bH = target: T4, 4H1985-bH; experiment: two-hybrid library CCNG1;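 further: natural log of median RNA to DNA barcode read ratio; higher means stronger binding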
T4 chain: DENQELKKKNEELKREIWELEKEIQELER

4H3129-bH = target: T5, 4H3129-bH; experiment: two-hybrid library CCNG1
T5 chain: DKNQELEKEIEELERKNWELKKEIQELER

4H3172-bH = target: T6, 4H3172-bH; experiment: two-hybrid library CCNG1
T6 chain: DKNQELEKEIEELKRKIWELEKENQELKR

4H3414-bH = target: T7, 4H3414-bH; experiment: two-hybrid library CCNG1
T7 chain: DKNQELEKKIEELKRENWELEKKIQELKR

4H3631-bH = target: T8, 4H3631-bH; experiment: two-hybrid library CCNG1
T8 chain: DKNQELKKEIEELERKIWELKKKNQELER

4H3638-bH = target: T9, 4H3638-bH; experiment: two-hybrid library CCNG1
T9 chain: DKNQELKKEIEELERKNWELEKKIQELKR

4H3817-bH = target: T10, 4H3817-bH; experiment: two-hybrid library CCNG1
T10 chain: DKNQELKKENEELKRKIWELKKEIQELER

4H3974-bH = target: T11, 4H3974-bH; experiment: two-hybrid library CCNG1
T11 chain: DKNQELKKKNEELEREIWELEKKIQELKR

4H496-bA = target: T12, 4H496-bA; experiment: two-hybrid library CCNG1
T12 chain: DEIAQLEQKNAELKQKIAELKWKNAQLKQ

4H570-bH = target: T13, 4H570-bH; experiment: two-hybrid library CCNG1
T13 chain: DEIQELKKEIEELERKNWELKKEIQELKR

4H584-bH = target: T14, 4H584-bH; experiment: two-hybrid library CCNG1
T14 chain: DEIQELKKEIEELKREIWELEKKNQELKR

4H619-bH = target: T15, 4H619-bH; experiment: two-hybrid library CCNG1
T15 chain: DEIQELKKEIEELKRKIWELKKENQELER

4H850-bH = target: T16, 4H850-bH; experiment: two-hybrid library CCNG1
T16 chain: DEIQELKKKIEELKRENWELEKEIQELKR

4H906-bH = target: T17, 4H906-bH; experiment: two-hybrid library CCNG1
T17 chain: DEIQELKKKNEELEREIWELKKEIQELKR

O6-bP = target: T18, O6-bP; experiment: two-hybrid library CCNG1
T18 chain: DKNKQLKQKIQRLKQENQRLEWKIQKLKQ

P8A-bH = target: T19, P8A-bH; experiment: two-hybrid library CCNG1
T19 chain: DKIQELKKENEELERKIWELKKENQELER

4H2729-AA = target: T20, 4H2729-AA; experiment: two-hybrid library CCmax
T20 chain: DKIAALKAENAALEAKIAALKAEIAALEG

4H2754-AA = target: T21, 4H2754-AA; experiment: two-hybrid library CCmax; conditions: mean of both orientations
T21 chain: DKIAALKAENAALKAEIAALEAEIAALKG

4H2837-AA = target: T22, 4H2837-AA; experiment: two-hybrid library CCmax; conditions: mean of both orientations
T22 chain: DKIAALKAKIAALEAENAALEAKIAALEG

4H2883-AA = target: T23, 4H2883-AA; experiment: two-hybrid library CCmax; conditions: mean of both orientations
T23 chain: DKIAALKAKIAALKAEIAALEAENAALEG

4H2944-AA = target: T24, 4H2944-AA; experiment: two-hybrid library CCmax; conditions: mean of both orientations
T24 chain: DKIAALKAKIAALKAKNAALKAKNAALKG

4H2949-AA = target: T25, 4H2949-AA; experiment: two-hybrid library CCmax; conditions: mean of both orientations
T25 chain: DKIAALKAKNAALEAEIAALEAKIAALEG

4H3112-AA = target: T26, 4H3112-AA; experiment: two-hybrid library CCmax; conditions: mean of both orientations
T26 chain: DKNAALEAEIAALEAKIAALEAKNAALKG

4H317-AA = target: T27, 4H317-AA; experiment: two-hybrid library CCmax; conditions: mean of both orientations
T27 chain: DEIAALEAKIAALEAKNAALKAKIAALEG

4H3343-AA = target: T28, 4H3343-AA; experiment: two-hybrid library CCmax; conditions: mean of both orientations
T28 chain: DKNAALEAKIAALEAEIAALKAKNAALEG

4H335-AA = target: T29, 4H335-AA; experiment: two-hybrid library CCmax; conditions: mean of both orientations
T29 chain: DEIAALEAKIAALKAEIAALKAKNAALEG

4H342-AA = target: T30, 4H342-AA; experiment: two-hybrid library CCmax; conditions: mean of both orientations
T30 chain: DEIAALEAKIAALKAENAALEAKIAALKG

4H3427-AA = target: T31, 4H3427-AA; experiment: two-hybrid library CCmax; conditions: mean of both orientations
T31 chain: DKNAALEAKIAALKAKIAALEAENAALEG

4H3606-AA = target: T32, 4H3606-AA; experiment: two-hybrid library CCmax; conditions: mean of both orientations
T32 chain: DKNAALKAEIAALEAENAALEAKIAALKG

4H3627-AA = target: T33, 4H3627-AA; experiment: two-hybrid library CCmax; conditions: mean of both orientations
T33 chain: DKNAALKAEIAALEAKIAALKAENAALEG

4H3655-AA = target: T34, 4H3655-AA; experiment: two-hybrid library CCmax; conditions: mean of both orientations
T34 chain: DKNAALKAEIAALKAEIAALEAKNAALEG

4H3844-AA = target: T35, 4H3844-AA; experiment: two-hybrid library CCmax; conditions: mean of both orientations
T35 chain: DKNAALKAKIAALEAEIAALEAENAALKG

4H3921-AA = target: T36, 4H3921-AA; experiment: two-hybrid library CCmax; conditions: mean of both orientations
T36 chain: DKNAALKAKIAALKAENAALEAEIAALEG

4H429-AA = target: T37, 4H429-AA; experiment: two-hybrid library CCmax; conditions: mean of both orientations
T37 chain: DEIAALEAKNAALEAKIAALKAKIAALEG

4H454-AA = target: T38, 4H454-AA; experiment: two-hybrid library CCmax; conditions: mean of both orientations
T38 chain: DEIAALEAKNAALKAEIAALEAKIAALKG

4H48-AA = target: T39, 4H48-AA; experiment: two-hybrid library CCmax; conditions: mean of both orientations
T39 chain: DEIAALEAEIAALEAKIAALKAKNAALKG

4H566-AA = target: T40, 4H566-AA; experiment: two-hybrid library CCmax; conditions: mean of both orientations
T40 chain: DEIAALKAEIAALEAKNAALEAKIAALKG

4H605-AA = target: T41, 4H605-AA; experiment: two-hybrid library CCmax; conditions: mean of both orientations
T41 chain: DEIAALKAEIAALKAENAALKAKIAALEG

4H678-AA = target: T42, 4H678-AA; experiment: two-hybrid library CCmax; conditions: mean of both orientations
T42 chain: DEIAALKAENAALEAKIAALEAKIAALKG

4H717-AA = target: T43, 4H717-AA; experiment: two-hybrid library CCmax; conditions: mean of both orientations
T43 chain: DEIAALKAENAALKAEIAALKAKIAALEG

4H780-AA = target: T44, 4H780-AA; experiment: two-hybrid library CCmax; conditions: mean of both orientations
T44 chain: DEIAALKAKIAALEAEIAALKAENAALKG

4H794-AA = target: T45, 4H794-AA; experiment: two-hybrid library CCmax; conditions: mean of both orientations
T45 chain: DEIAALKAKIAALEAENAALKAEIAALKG

4H881-AA = target: T46, 4H881-AA; experiment: two-hybrid library CCmax; conditions: mean of both orientations
T46 chain: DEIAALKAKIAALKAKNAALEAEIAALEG

4H906-AA = target: T47, 4H906-AA; experiment: two-hybrid library CCmax; conditions: mean of both orientations
T47 chain: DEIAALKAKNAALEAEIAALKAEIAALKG

4H993-AA = target: T48, 4H993-AA; experiment: two-hybrid library CCmax; conditions: mean of both orientations
T48 chain: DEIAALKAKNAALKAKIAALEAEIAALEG

N5-AA = target: T49, N5-AA; experiment: two-hybrid library CCmax; conditions: mean of both orientations
T49 chain: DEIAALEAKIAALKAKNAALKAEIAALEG

N6-AA = target: T50, N6-AA; experiment: two-hybrid library CCmax; conditions: mean of both orientations
T50 chain: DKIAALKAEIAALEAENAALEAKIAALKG

B1: 4H1629-bH (peptide)
chain: DENQELKKEIEELKRENWELKKKIQELER
interaction score (4H1629-bH): -0.954 | interaction score (4H1710-bH): -2.67 | interaction score (4H1804-bH): -1.81 | interaction score (4H1985-bH): -0.16 | interaction score (4H3129-bH): -0.581 | interaction score (4H3172-bH): -0.534 | interaction score (4H3414-bH): -1.1 | interaction score (4H3631-bH): -0.299 | interaction score (4H3638-bH): -1.09 | interaction score (4H3817-bH): -0.618 | interaction score (4H3974-bH): 0.236 | interaction score (4H496-bA): -2.88 | interaction score (4H570-bH): -1.69 | interaction score (4H584-bH): 0.366 | interaction score (4H619-bH): 0.577 | interaction score (4H850-bH): 1.03 | interaction score (4H906-bH): -0.794 | interaction score (O6-bP): 1.7 | interaction score (P8A-bH): 0.887

B2: 4H2729-AA (peptide)
chain: DKIAALKAENAALEAKIAALKAEIAALEG
interaction score (4H2729-AA): 1.46 | interaction score (4H2754-AA): 2.26 | interaction score (4H2837-AA): 0.924 | interaction score (4H2883-AA): -1.1 | interaction score (4H2944-AA): -1.66 | interaction score (4H2949-AA): 1.85 | interaction score (4H3112-AA): -0.662 | interaction score (4H317-AA): 1.37 | interaction score (4H3343-AA): -1.17 | interaction score (4H335-AA): -0.622 | interaction score (4H342-AA): 2.18 | interaction score (4H3427-AA): -1.33 | interaction score (4H3606-AA): -0.747 | interaction score (4H3627-AA): 1.22 | interaction score (4H3655-AA): -0.901 | interaction score (4H3844-AA): -1.03 | interaction score (4H3921-AA): -1.21 | interaction score (4H429-AA): 1.68 | interaction score (4H454-AA): 1.94 | interaction score (4H48-AA): -0.497 | interaction score (4H566-AA): 0.192 | interaction score (4H605-AA): -1.37 | interaction score (4H678-AA): 1.97 | interaction score (4H717-AA): 1.12 | interaction score (4H780-AA): -1.31 | interaction score (4H794-AA): -1.09 | interaction score (4H881-AA): -0.0189 | interaction score (4H906-AA): 1.15 | interaction score (4H993-AA): 1.96 | interaction score (N5-AA): 0.643 | interaction score (N6-AA): 1.56
